Experimental findings from patent US20210187069A1 are described below.

This assay has as its target wildtype SARM1 (endogenous, in wildtype mouse dorsal root ganglion neurons) (mouse) (UniProt Q6PDS3). The assay can be described thus: cell-based or functional assay.

Chain of wildtype SARM1 (endogenous, in wildtype mouse dorsal root ganglion neurons) (mouse) (Q6PDS3 28-724 limits assumed): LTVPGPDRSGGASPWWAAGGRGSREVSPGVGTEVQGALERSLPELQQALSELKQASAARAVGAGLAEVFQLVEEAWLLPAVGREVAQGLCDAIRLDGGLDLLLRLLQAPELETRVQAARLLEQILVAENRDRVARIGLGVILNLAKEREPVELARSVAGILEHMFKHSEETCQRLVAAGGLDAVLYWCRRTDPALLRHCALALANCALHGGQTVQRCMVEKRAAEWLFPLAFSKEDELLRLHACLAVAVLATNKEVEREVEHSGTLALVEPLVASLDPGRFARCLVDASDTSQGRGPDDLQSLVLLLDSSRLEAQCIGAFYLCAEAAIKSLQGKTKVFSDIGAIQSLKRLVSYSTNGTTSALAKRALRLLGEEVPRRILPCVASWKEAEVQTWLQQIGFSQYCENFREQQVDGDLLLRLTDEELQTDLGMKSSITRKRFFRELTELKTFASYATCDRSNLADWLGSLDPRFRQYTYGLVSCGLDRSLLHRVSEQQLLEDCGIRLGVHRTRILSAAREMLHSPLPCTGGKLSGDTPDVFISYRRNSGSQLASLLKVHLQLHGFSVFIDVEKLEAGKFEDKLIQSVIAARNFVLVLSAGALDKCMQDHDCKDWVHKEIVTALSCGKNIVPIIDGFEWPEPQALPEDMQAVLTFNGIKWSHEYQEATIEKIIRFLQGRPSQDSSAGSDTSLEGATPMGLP

“SARM1 E569K (from UniProt Q6SZW1 28-724)” showed an axon degeneration after axotomy of 24 h.
